Test results taken from paper PMC6520106.

Tests used:
[1] = target: BicD2-CTD (C-terminal cargo binding domain of human BicD2, residues 715-804) (human); assay: ITC
[2] = target: Rab6 (Homo sapiens) (UniProt P20340); conditions: cited from earlier work
[3] = target: BicD2-CTD (C-terminal cargo binding domain of human BicD2, residues 715-804) (human); assay: SEC-MALS

Sequence of UniProt P20340 (P20340 2-208): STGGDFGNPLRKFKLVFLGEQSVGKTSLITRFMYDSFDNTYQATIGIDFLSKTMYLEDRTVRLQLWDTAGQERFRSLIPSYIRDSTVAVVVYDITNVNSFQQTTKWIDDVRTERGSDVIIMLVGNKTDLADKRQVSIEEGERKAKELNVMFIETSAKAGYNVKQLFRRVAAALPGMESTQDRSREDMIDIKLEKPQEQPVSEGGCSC

| Substance | Kd [1] [µM] | dH [1] [kcal/mol] | stoichiometry N (binder per target (2:2 complex)) [3] | also measured |
| --- | --- | --- | --- | --- |
| Nup358-RBD2/RanGTP complex (from UniProt P62826 1-216) | 3.8 | -12.8 |  |  |
| BicD2 (from UniProt Q8TD16) |  |  |  | Kd [2]: 1 µM |
| BicD2-CTD (C-terminal cargo binding domain of human BicD2, residues 715-804) (domain or fragment) |  |  |  | stoichiometry N [3]: 2 |
| Nup358-RBD2 (residues 2006-2443 of human Nup358) (domain or fragment) | 0.5 | -14.9 | 1 |  |
| Rab6^GTP (full-length human Rab6a Q72L, GTP-locked) (from UniProt P20340 1-208) (natural protein) | 12.6 |  | 1 |  |
| Rab6^GTPmin (human Rab6a Q72L, residues 13-174) (from UniProt P20340 13-174) (domain or fragment) | 12 |  |  |  |
